# Experiment: soluble on expression in E. coli; label from the status in PepcDB or PDB records
row,Sequence,soluble on expression in E. coli
1,MGHHHHHHSHMIKQRTLKRIVQATGVGLHTGKKVTLTLRPAPANTGVIYRRTDLNPPVDFPADAKSVRDTMLCTCLVNEHDVRISTVEHLNAALAGLGIDNIVIEVNAPEIPIMDGSAAPFVYLLLDAGIDELNCAKKFVRIKETVRVEDGDKWAEFKPYNGFSLDFTIDFNHPAIDSSNQRYAMNFSADAFMRQISRARTFGFMRDIEYLQSRGLCLGGSFDCAIVVDDYRVLNEDGLRFEDEFVRHKMLDAIGDLFMCGHNIIGAFTAYKSGHALNNKLLQAVLAKQEAWEYVTFQDDAELPLAFKAPSAVLA,not soluble
2,MAHHHHHHMGTLEAQTQGPGSMRLTVVGANGRMGRELITAIQRRKDVELCAVLVRKGSSFVDKDASILIGSDFLGVRITDDPESAFSNTEGILDFSQPQASVLYANYAAQKSLIHIIGTTGFSKTEEAQIADFAKYTTIVKSGNMSLGVNLLANLVKRAAKALDDDFDIEIYEMHHANKVDSPSGTALLLGQAAAEGRNIMLKNVSVNGRSGHTGKREKGTIGFACSRGGTVIGDHSITFAGENERIVLSHIAQERSIFANGALKAALWAKNHENGLYSMLDVLGLNE,soluble
3,MAKAQLSQNGEARAWQRMLSGRRLDLLNPSPFDIEIEDIAHGLARVARWNGQTQGEYAYSVAQHSLLVEQIFQKLFPQSQNNECLCALLHDAPEYVIGDIISPFKAVIGKQYELIEKRIQDAIHMRFSLPVAPSQKLLKKIKQADRIAAFHESIILAGFNTEEALRYFGHPNNISPEGLNLQPCSTTKIENAFLKRFHDLDVERLH,not soluble
4,MSDDLSAFFAKKKDKKKKSAVKIEEVGQALERRAKRQEEYEQESEDVSEKRVEEEKAVNPNEESEWIEYGESQGRLDGLKIKDMGLESEQDQVNNEEPEDREVHETKTWGQVSSEKKATEEPEQAVTISDKAMAAAYKPPAMRRPGAPYRPRAAAANLDMGSDAAFPSLADASKIEKNKKEESKSPGGWVKAGSGGAWPGSSGPSSSGSSRSYPTTAGSGRDSALAALKMMSAANPAPARNEPAPAPAAAAPASSGAAKAGSYVPPHLRKNQ,not soluble
5,MGHHHHHHSHMDADSASQRLVISAPDSQVRFSNIRTNDVAKTPQMHGTEMANSPQPPPLSPHPCDVVDEGVTKTPSTPQSQHFYQMPTPDPLVPSKPMEDRIDSLSQSFPPQYQEAVEPTVYVGTAVNLEEDEANIAWKYYKFPKKKDVEFLPPQLPSDKFKDDPVGPFGQESVTSVTEYVFFLIVTIII,not soluble
6,MKTPTRVSFEKKIHTPPSGDRDAERSPPKKFLRGLSGKVFRKTPEFKKQQMPTFGYIEESQFTPNLGLMMSKRGNIPKPLNLSKPISPPPSLKKTAGSVASGFSKTGQLSALQSPVNITSSNKYNIKATNLTTSLLRESISDSTTMCDTLSDINLTVMDEDYRIDGDSYYEEDSPTFMISLERNIKKCNSQFSPKRYIGEKCLICEESISSTFTGEKVVESTCSHTSHYNCYLMLFETLYFQGKFPECKICGEVSKPKDKDIVPEMVSKLLTGAGAHDDGPSSNMQQQWIDLKTARSFTGEFPQFTPQEQLIRTADISCDGFRTPRLSNSNQFEAVSYLDSPFLNSPFVNKMATTDPFDLSDDEKLDCDDEIDESAAEVWFSKTGGEHVMVSVKFQEMRTSDDLGVLQDVNHVDHEELEEREKEWKKKIDQYIETNVDKDSEFGSLILFDKLMYSDDGEQWVDNNLVILFSKFLVLFDFEEMKILGKIPRDQFYQVIKFNEDVLLCSLKSTNIPEIYLRFNENCEKWLLPKWKYCLENSSLETLPLSEIVSTVKELSHVNIIGALGAPPDVISAQSHDSRLPWKRLHSDTPLKLIVCLNLSHADGELYRKRVLKSVHQILDGLNTDDLLGIVVVGRDGSGVVGPFGTFIGMINKNWDGWTTFLDNLEVVNPNVFRDEKQQYKVTLQTCERLASTSAYVDTDDHIATGYAKQILVLNGSDVVDIEHDQKLKKAFDQLSYHWRYEISQRRMTPLNASIKQFLEELHTKRYLDVTLRLPQATFEQVYLGDMAAGEQKTRLIMDEHPHSSLIEIEYFDLVKQQRIHQTLEVPNL,not soluble
7,MGSDKIHHHHHHMNINPTEKLSQPIVEKVAIVGAGPGGLAAAIALRSQGIDVQIYEKAQEFRPAGTGLGLAPNGLNFLDAIAPGIVETLKGSGCEVHHTVLKNFRGETIRANASKYQEKYGQPLVTVWWYRLQQVLASRLPSDIVHLNHRCIGFEQDENGVEIRFDGEKSVYADLLIGADGVNSVIREILFGEGKPNYIGSMCWRAVIKYHHELFNDYELVFVKGNQQFMYLLNVGGGYMSWISRKFSPEYSLCHSADEVKSRILHELADWDESFQVVVQATPAEQIWEGPICDRPPLTHWSQGRVTLLGDAAHPMAPAMGQGANTTFEDAYELRECFSQSANLQEALTSYEQRRMQRTEIIQARSALGEMRYYESNTVASNGQREQTMSVNDDFHKWLYDYKPSATIKF,not soluble
8,SPLDRDPAFRVITVTKETGLGLKILGGINRNEGPLVYIHEVIPGGDCYKDGRLKPGDQLVSINKESMIGVSFEEAKSIITRAKLRSESPWEIAFIR,soluble
9,MLFNFREKLNSRKFLVTAEVSPPKGTRFSASLEDASQLKGIADALNVTDNQCSIMHMSSLAFSKLLLDEGHEPIMQLTCRDRNRIGLQSDLLGAYALGIRNICLMTGDYPTCGDHPGSKPVYDVDSVQLIELVRKLDTGVDFAGNKLDGGTSFCAGAVSGIDPEKTMQLIKLQKKVKCGADFIQTQAVYDIGMFEEFMDAVNYLEVPVIAGLIPLKSLGMAEFMNKNISGIHVPEEIMLRMKDASSPMEEGLLIASETIKELTKLSRGIHVMPIGSHRNTARLLSLAGISQ,not soluble
10,MGSDKIHHHHHHMYRVMFVDDEYMILEGLKWIIPWQELGFEIVKTARSAQEALAFLETESIDVLLTDITMPEMSGIELIEQAKKKGHQFISLILSGYQEFDYVKKGMALQVQDYLLKPVNKQELLANIQRIKIELDQQKKSHARVRLYLENGLMRWLNDEISEGEYEELMQQFATIKPGDFTVLLVEAEMSFLETIKELFMKKGQLLFIESWMSTYHQLLLIYKGARQEAFLFIREIEAILAGQGQIFVGESVNEWETVYESYEKVKQLQAIETFYQEFLPNNQKEQMNRSAEDFTFLAFNQALMIGDMQTIQRELDAIFNQLSQQHATPEYVRYVVFLLFSDISRQYPTVLEENYEKIVEEIRASNNLNTLYALMQQVLAEVKNKPKIKKYSESVSQAVERIEQGYLEELNLKTVADELHLNPSYLGQIFKKETKRSFSQYLNQVRTKHAQKLLLYTDDTINEISEKVGFNNTNYFSKMFKKLNGITPKEFREQYQSNYAGVEE,not soluble
11,MAHHHHHHMQKPIMIVGTSAPRRREIAQRHFGATYDLVYLSPDIDEKQIRDSDPFTLTRAIAQAKMDELRVKVARDAALQDRVAKRPGSVAITFDQVVDYHGEIREKPASEQQAAAFIHAYSNDNLGTVMTTVLYDFGTGKQVSMPNTTLTFYGEIPDETVARVVERGACLRTAGGFVVEDVDMKRCEIKIDPGTEEEVCGFCEKSVRALLEGVQRPWVQSDHCSDGKR,not soluble
12,MQPHPETTPVTSCTIIDATDRSIRQTLGETSTLARLIWVDAGLASPPLCSGLARCGRCRVRITEAAPAPHEDDREFFSAEDISAGWRLACRHAPAHGMVVHVPLPVMPHRHASRPKHPGPFRLAVDLGTTSLQWSLLAPDGTVAAQGSETNPQMGAGSDVMSRIAMARSDKGRGRLRELVLQALRRIVADVEGTPATADAVPPAGSGDEPTTACGYESRVEELCVAGNTAMTAILADESVEGLASAPYRLEMRGGTALALPGLPPAWIPPLPAPFVGGDLSAGYLAVLTDHAPAFPFVLADLGTNGEFVLALSPERTLVTSVALGPALEGIGLTFGTVAQRGAITSFTLTPGGLVPYVLDGGEADGISGTGYISLVHALLRAGLLDVDGRFIQSPSSPLAARMARSIVSHRGEPCLPLARGLYLAARDIEEILKVKAAFSLAFERLLATAQMPSHALSGIHLAGALGQHALPADLEGLGFIPPGSGGRTRAVGNTSLRGAELLLTSPPLRDTLNTWREGCTVVDLTAAPDFSAAFLRHMHFHFLEHHHHHH,soluble
13,MSAYIAPSQIAQRQLEYFNGKHVLVAGEVEDMFPLELTAHCESVEVFTSNYSYFRQIRHSDKIKSHFGSEFDVETQADMLLLYWPKAKAEAEYLLAMLMAKLGVNTEIVVVGENRSGVKSIEKMFKEYGPVNKYDSARRCSFYWGNCLNEPKPFNQEEWFKSYTVTLGEQSLTVKSLPGVFSHGEFDLGSRLLLETLPNLSGKVLDFGCGAGVLGAFMAKANPEIAIEMCDINAYAITSSQATLEANGLSGRVFASDIYSDTANDYRFIISNPPFHSGLDTNYNAAETLLGHAPQHLSNHGEMIIVANSFLKYPPIIENAFNNCETLNKTNKFSIYYAKKS,not soluble
14,NLNSIQNFGAIDILCTDKTGTLTQDKVVLEYHLNVNGEDDTRVLRHAYLNSYFQTGYKNLMDLAIIHKTEEEEAADSRLIDLSENYVKVDEIPFDFTRRRLTTVVQDNKGKTQMVTKGAVEEMLSICAFAECNGGVQPLTDDVRYRILETVDNLNDKGFRVLAIAQKSNPSPIGAFGVKDECDMVLIGYLAFLDP,not soluble
15,MELWRQCTHWLIQCRVLPPSHRVTWEGAQVCELAQALRDGVLLCQLLNNLLPQAINLREVNLRPQMSQFLCLKNIRTFLSTCCEKFGLKRSELFEAFDLFDVQDFGKVIYTLSALSWTPIAQNKGIMPFPTEDSALNDEDIYSGLSDQIDDTAEEDEDLYDCVENEEAEGDEIYEDLMRLESVPTPPKMTEYDKRCCCLREIQQTEEKYTDTLGSIQQHFMKPLQRFLKPQDMETIFVNIEELFSVHTHFLKELKDALAGPGATTLYQVFIKYKERFLVYGRYCSQVESASKHLDQVATAREDVQMKLEECSQRANNGRFTLRDLLMVPMQRVLKYHLLLQELVKHTQDATEKENLRLALDAMRDLAQCVNEVKRDNETLRQITNFQLSIENLDQSLANYGRPKIDGELKITSVERRSKTDRYAFLLDKALLICKRRGDSYDLKASVNLHSFQVRDDSSGERDNKKWSHMFLLIEDQGAQGYELFFKTRELKKKWMEQFEMAISNIYPENATANGHDFQMFSFEETTSCKACQMLLRGTFYQGYRCYRCRAPAHKECLGRVPPCGRHGQDFAGTMKKDKLHRRAQDKKRNELGLPKMEVFQEYYGIPPPPGAFGPFLRLNPGDIVELTKAEAEHNWWEGRNTATNEVGWFPCNRVHPYVHGPPQDLSVHLWYAGPMERAGAEGILTNRSDGTYLVRQRVKDTAEFAISIKYNVEVKHIKIMTSEGLYRITEKKAFRGLLELVEFYQQNSLKDCFKSLDTTLQFPYKEPERRAISKPPAGSTKYFGTAKARYDFCARDRSELSLKEGDIIKILNKKGQQGWWRGEIYGRIGWFPSNYVEEDYSEYC,soluble
16,SKLPKGTRSSVYFAQHPEKEPLPSRQEVKQTPVIMAKIKGPGPAKYLRPSCTGYIDHDISMFKAPAYTLHSRHSEKRMVCHSSPGPCYLLDPKITRFGMSSCPQVPMEERISNLRLNPTLASCQYYFEKIHPPGERRAPQYTFGYRRPYRVMDLNPAPNQYQMPLLLGPNTPVSRAAPCYSLASRDKNWFYKEDVAGGPGPTTYARPEPSIYQNRSPTYSMAKRFAYPLDLTPRPGPGSHEVQQVTVHKPHIPAFTMGIKHSLHLCPLVIDIRD,not soluble

# Source: the DeepSol protein solubility set
